The supplement of paper PMC9170038

System: K4 kissing-loop RNA reporter
Assay: apparent KD of K4 kissing-loop reporter; higher = weaker reporter binding
Conditions: Eterna round: R107
Protocol: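 RNA-MaP round R107: designed RNA switches with theophylline, tryptophan, arginine or FMN aptamers are transcribed on-chip within common flanks. They are titrated with a labelled K4 kissing-loop RNA reporter in RNA-MaP buffer (100 mM Tris pH 7.5, 80 mM KCl, 4 mM MgCl2), without ligand or with the indicated ligand. Median apparent KD per design.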

[1] = input ligand: theophylline 20 uM
[2] = input ligand: tryptophan 2.4 mM
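Also: bound reporter read as fluorescence of individual clusters on recovered sequencing chips by microscopy, with normalized cluster intensities fitted with a binding model.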

Sequence	apparent KD of K4 kissing-loop reporter (input ligand: FMN 200 uM) [nM]	apparent KD of K4 kissing-loop reporter (input ligand: arginine 13.2 mM) [nM]	apparent KD of K4 kissing-loop reporter (input ligand: none) [nM]	apparent KD of K4 kissing-loop reporter [1] [nM]	apparent KD of K4 kissing-loop reporter [2] [nM]
CGCAGUGAUGUUGCGAAUAUAAUGCAUUCAGAGGAUAUUCGUUUGGGAAGAAGGCUGAAUCGUUCUUCGAGUGAUGUUCGAGGAA [Same State FMN A GF 17]	141	133	154	136	132
CGCAGUGAUGUUGCGAGUUAAUUCAGGGAAGGAGCGCCACAGAUGGCAGGUAGGUCGCCCACGCAGUGAUGUUGCGUAUUCGGGU [Exclusion Arginine A GF 4]	94.3	96.8	95.7	111	80.6
CGCAGUGAUGUUGCUAUUAUUCUUGGUUAACGAGGACCGGUACGGCCGCCACUCGAUUUCUAUCUAGUCCAGUGUUUUUUUGAGU [whbob_EX_Tryp_A_t7]	347	392	470	451	250
CGCCAGUGAUGUUGGCGCAGCUACCGGGAAGGAGCGCCGUAGUCGGCAGGUAGGUCGCCCGGGCAGUGAUGUUGCCUCAUACCGU [Exclusion Arginine A GF 21]	229	247	258	347	236
CGCCAGUGAUGUUGGCGCAGGUUGCGGGAAGGAGCGCGCGUAAGCGCAGGUAGGUCGCCUGCAGGCCAGUGAUGUUGGCAAUCUG [Same State Arginine A GF 30]	130	110	143	111	116
CGCCAUAACACGGCCGCCACUCAUCAAGCUCAGUGAUGUUGAGCAGCAGCUGCAAUCGCGAUUACGAGGACCGGGUGCUGUCUGU [theeternabot_sameState_KL_Trp_B_50]	286	329	314	357	231
CGCGCCCAGCCGGAUACCAGUGACCCGCUGGGAACCGCGGGCCCAGAGUGAUGUUCGGGACACCCUUGGCAGCCGCCUGGGCGGU [#2 Same State - Theophylline B Attempt #10 (HarryS)]	2380	576	1270	576	1570
CGCGGCCGGCCGGAUACCAGUGACCCGCUGGCAACCGCGGGCCCAGAGUGAUGUUCGGGACACCCUUGGCAGCCGCCUGGGCGUG [#2 Same State - Theophylline B Attempt #4 (HarryS)]	521	309	483	694	396
CGCUGGGCGAGUGAUGUUCGCUCACGUGAUACCAGUGCCAUCCAACACCCUUGGCAGCACGCGGGCAGUGAUGUUGUCCUUGUAU [Exclusion Theophylline A GF6]	130	117	127	109	119
CGGACUGCAGGAAGGAGCGGCGGACGGAGUGAUGUUCCGGGUAGUGAUGUUACCAAACACCGCCAGGUAGGUCGCCUGUUGCUCC [Same State Arginine B GF8]	161	134	170	146	147
CGGAGUGAUGUUCCGUUAAUUCCUUAUUUACGAGGACCGGUACGGCCGCCACUCGAUUUUGCUUUUAUUUAAUGUUUGGAAAUUU [JR_SSTryptoA_Sub007]	256	274	269	317	122
CGGAUGUAGUGAUGUUAUAUUAGAUGUAGACGAGGACCGGUACGGCCGCCACUCGUGAUGGCUGCUAGCACGUUUCGAGGUUUGC [ExTryptoA.Cp]	515	624	604	438	489
CGGUUUGGUUGAGAGGUUGGGCCGAAUGAUACCAGUAUAUAAGAAUACCCUUGGCAGCAUAAGAAAGAUAUAGUGAUGUUGUAUA [SSTheophA.J]	475	537	495	513	507
CGUACAUCUUUUCGCGGAGUGAUGUUCUCGCGAGGACCGGUACGGCCGCCACUCGAAUUGUUAUCUGGCGAAAAUUGUCUAUAAA [theeternabot_exclusion_KL_Trp_A_33]	393	273	352	318	410
CGUGAAGCCCAGAGGUGAUGUAUAGUAUCGCGAGGACCGGUACGGCCGCCACUCGUGAAGAGAAAGGAGUGAUGUUCCGUAAUGG	480	380	595	406	165
CGUGAGUGAUGUUCACGAUGCUUCAAUCUAGAGGAUAUUCACGAUCGAAGAAGGCUGGACAAGUGCUGUCUCAUGACAGAUAAGG [FMN A SS t4]	161	253	287	298	237
CGUGGUGCCAAAGGAUAUCAUGCUAACGCGGUUGAGUGAUGUUCGACCCGAGAUAAGAGUGGGCAUUGAGAAGGUUGCGCAGAAG [theeternabot_sameState_KL_FMN_B_10]	149	125	139	124	145
